Experiments:
[1] = target: recombinant BB0347 (Borrelia burgdorferi); test: ELISA
[2] = target: recombinant BB0347 (Borrelia burgdorferi); test: ELISA; Figure 5, rBB0347 with full-length Fn; which protein was coated is not told; KD = concentration of added protein at half-maximal binding, assuming saturation

human fibronectin (from UniProt P02751 32-2477) (natural protein)
percent reduction of binding with 50 µM heparin [1]: 40%
Kd [2]: 0.2 µM

— paper PMC3785480
